Results reported in patent publication US20020058276A1 (GOVERNING COUNCIL OF THE UNIVERSITY OF TORONTO, published 2002).

Biological target: wild type human presenilin 1 (PS1) (human, UniProt P49768 1-467)
Assay: cell-based or functional assay

Aβ42/Aβ40 Ratio	Binder
0.09 normalized to mock transfection (1.0)	PAMPΔ312-369 (other, not shown: small tags and cut ends) NSVERKIYIPLNKTAPCVRLLNATHQIGCQSSISGDTGVIHVVEKEEDLQWVLTDGPNPPYMVLLESKHFTRDLMEKLKGRTSRIAGLAVSLTKPSPASGFSPSVQCPNDGFGVYSNSYGPEFAHCREIQWNSLGNGLAYEDFSFPIFLLEDENETKVIKQCYQDHNLSQNGSAPTFPLCAMQLFSHMHAVISTATCMRRSSIQSTFSINPEIVCDPLSDYNVWSMLKPINTTGTLKPDDRVVVAATRLDSRSFFWNVAPGAESAVASFVTQLAAAEALRTSLELWMHTDPVSQKNESVRNQVEDLLATLEKSGAGVPAVILRRPNQSQPLPPSSLQRFLRARNISGVVLADHSGAFHNKYYQSIYDTAENINVSYPEWLSPEEDLNFVTDTAKALADVATVLGRALYELAGGTNFSDTVQADPQTVTRLLYGFLIKANNSWFQSILRQDLRSYLGDGPLQHYIAVSSPTNTTYVVQYALANLTGTVVNLTREQCQDPSKVPSENKDLYEYSWVQGPLHSNETDRLPRCVRSTARLARALSPAFELSQWSSTEYSTWTESRWKDIRARIFLIASKELELITLTVGFGILIFSLIVTYCINAKADVLFIAPREPGAVSY
0.59 normalized to mock transfection (1.0)	PAMPΔ312-340 (other, not shown: small tags and cut ends) NSVERKIYIPLNKTAPCVRLLNATHQIGCQSSISGDTGVIHVVEKEEDLQWVLTDGPNPPYMVLLESKHFTRDLMEKLKGRTSRIAGLAVSLTKPSPASGFSPSVQCPNDGFGVYSNSYGPEFAHCREIQWNSLGNGLAYEDFSFPIFLLEDENETKVIKQCYQDHNLSQNGSAPTFPLCAMQLFSHMHAVISTATCMRRSSIQSTFSINPEIVCDPLSDYNVWSMLKPINTTGTLKPDDRVVVAATRLDSRSFFWNVAPGAESAVASFVTQLAAAEASRMVYDMEKGKFPVQLENVDSFVELGQVALRTSLELWMHTDPVSQKNESVRNQVEDLLATLEKSGAGVPAVILRRPNQSQPLPPSSLQRFLRARNISGVVLADHSGAFHNKYYQSIYDTAENINVSYPEWLSPEEDLNFVTDTAKALADVATVLGRALYELAGGTNFSDTVQADPQTVTRLLYGFLIKANNSWFQSILRQDLRSYLGDGPLQHYIAVSSPTNTTYVVQYALANLTGTVVNLTREQCQDPSKVPSENKDLYEYSWVQGPLHSNETDRLPRCVRSTARLARALSPAFELSQWSSTEYSTWTESRWKDIRARIFLIASKELELITLTVGFGILIFSLIVTYCINAKADVLFIAPREPGAVSY
